What is called Km is the substrate concentration at which the rate is half of its maximum. One may read the kcat as the number of substrate molecules converted per active site and unit of time at saturation.

The record followed here is publication PMC3058899 (Nature, 2010).

The target in one data set is T1, RebH (Lentzea aerocolonigenes, UniProt Q8KHZ8).
T1 sequence (Q8KHZ8 1-530): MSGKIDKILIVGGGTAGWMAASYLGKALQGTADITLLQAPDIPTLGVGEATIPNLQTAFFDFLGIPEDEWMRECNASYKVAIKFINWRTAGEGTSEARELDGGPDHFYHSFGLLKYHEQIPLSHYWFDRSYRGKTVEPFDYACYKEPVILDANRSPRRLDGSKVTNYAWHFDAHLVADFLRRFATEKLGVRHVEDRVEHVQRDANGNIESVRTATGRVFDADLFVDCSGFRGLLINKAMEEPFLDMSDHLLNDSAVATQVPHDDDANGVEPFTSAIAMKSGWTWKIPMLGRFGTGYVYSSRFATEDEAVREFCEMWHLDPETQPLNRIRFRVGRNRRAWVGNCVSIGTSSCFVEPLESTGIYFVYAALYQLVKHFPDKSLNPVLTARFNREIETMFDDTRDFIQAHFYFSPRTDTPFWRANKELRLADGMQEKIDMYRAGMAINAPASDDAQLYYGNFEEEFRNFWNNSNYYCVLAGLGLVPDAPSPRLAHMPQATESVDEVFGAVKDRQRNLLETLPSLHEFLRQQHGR
Nature of the data set: LC-MS of 7-chlorotryptophan in transformed C. roseus hairy roots. Type of data set: cell-based. The settings on record: with RebF reductase, chloride; in planta.

The next data set concerns the target PyrH (Streptomyces rugosporus, UniProt A4D0H5). Nature of the data set: LC-MS of 5-chlorotryptophan in transformed C. roseus hairy roots. As to conditions: with RebF reductase, chloride; in planta. Type of data set: cell-based.
Substrate in data set [1]: N[C@@H](Cc1c[nH]c2c(Cl)cccc12)C(=O)O
Nature of the data set: in vitro steady-state kinetics of decarboxylation. In kind it is biochemical, Catharanthus roseus.

Substrate in data set [2]: N[C@@H](Cc1c[nH]c2ccccc12)C(=O)O
Nature of the data set: in vitro steady-state kinetics of decarboxylation. In kind it is biochemical, Catharanthus roseus.

Substrate in data set [3]: N[C@@H](Cc1c[nH]c2ccc(Cl)cc12)C(=O)O
Nature of the data set: in vitro steady-state kinetics of decarboxylation. Type of data set: biochemical, Catharanthus roseus.

Sequence of PyrH (A4D0H5 whole entry): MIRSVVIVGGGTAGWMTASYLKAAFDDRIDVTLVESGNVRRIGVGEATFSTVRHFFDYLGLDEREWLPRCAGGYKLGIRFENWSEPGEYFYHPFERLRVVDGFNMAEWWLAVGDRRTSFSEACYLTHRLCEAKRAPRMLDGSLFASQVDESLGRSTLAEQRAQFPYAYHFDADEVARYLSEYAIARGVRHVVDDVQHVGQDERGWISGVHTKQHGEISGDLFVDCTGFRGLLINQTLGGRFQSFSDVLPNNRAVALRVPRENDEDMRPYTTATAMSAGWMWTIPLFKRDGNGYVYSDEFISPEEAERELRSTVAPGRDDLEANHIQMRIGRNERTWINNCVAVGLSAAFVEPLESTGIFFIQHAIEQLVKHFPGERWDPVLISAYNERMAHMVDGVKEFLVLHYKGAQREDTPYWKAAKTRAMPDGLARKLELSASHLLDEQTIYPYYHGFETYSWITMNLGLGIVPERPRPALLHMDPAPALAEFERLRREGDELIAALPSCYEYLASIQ

On to `N[C@@H](Cc1c[nH]c2ccccc12)C(=O)O` [compound 1, tryptophan], for which, at RebH, the “LC-MS of 7-chlorotryptophan in transformed C. roseus hairy roots” value is “formation of chlorinated tryptophan 1a and 1b and chlorinated alkaloids in both the RebH/RebF”. Moreover, the “LC-MS of 5-chlorotryptophan in transformed C. roseus hairy roots” value on PyrH was “we observed accumulation of 5-chlorotryptophan 1b”.

B1: tryptophan decarboxylase (C. roseus) (Catharanthus roseus) (protein)
chain: MGSIDSTNVAMSNSPVGEFKPLEAEEFRKQAHRMVDFIADYYKNVETYPVLSEVEPGYLRKRIPETAPYLPEPLDDIMKDIQKDIIPGMTNWMSPNFYAFFPATVSSAAFLGEMLSTALNSVGFTWVSSPAATELEMIVMDWLAQILKLPKSFMFSGTGGGVIQNTTSESILCTIIAARERALEKLGPDSIGKLVCYGSDQTHTMFPKTCKLAGIYPNNIRLIPTTVETDFGISPQVLRKMVEDDVAAGYVPLFLCATLGTTSTTATDPVDSLSEIANEFGIWIHVDAAYAGSACICPEFRHYLDGIERVDSLSLSPHKWLLAYLDCTCLWVKQPHLLLRALTTNPEYLKNKQSDLDKVVDFKNWQIATGRKFRSLKLWLILRSYGVVNLQSHIRSDVAMGKMFEEWVRSDSRFEIVVPRNFSLVCFRLKPDVSSLHVEEVNKKLLDMLNSTGRVYMTHTIVGGIYMLRLAVGSSLTEEHHVRRVWDLIQKLTDDLLKEA
Consider B1, for which the Michaelis constant (Km) in data set [1] was found to be 499 ± 74 µM; in data set [2], 51.7 ± 9.2 µM; in data set [3], 538 ± 48 µM. Also, the kcat in data set [1] came out at 0.0267 ± 0.00067 s⁻¹; in data set [2], 0.085 ± 0.0017 s⁻¹; in data set [3], 0.0417 ± 0.0013 s⁻¹.
